The Kd is the equilibrium constant for the complex coming apart.

Consider one molecule from paper PMC6019379, “RecA-like domain 2 of DNA-dependent ATPase A domain, a SWI2/SNF2 protein, mediates conformational integrity and ATP hydrolysis” (Bioscience Reports, 2018).

Holding throughout (experiment): intrinsic tryptophan fluorescence titration; no ATP; Fluorescence titration (ex 295 nm, em 340 nm), one-site saturation fit; buffer, salt, pH and temperature not given in the material. Wild-type ADAAD Kd values are cited from ref 24 and not listed
Holding throughout (settings): protein: recombinant; tags: His (Ni-NTA, pET-14b); hairpin

Data set [1] has as its target T1, ADAAD H329D/D591H (Bos taurus (bovine), UniProt Q9TTA5 221-940, H549D;D811H).
T1 sequence: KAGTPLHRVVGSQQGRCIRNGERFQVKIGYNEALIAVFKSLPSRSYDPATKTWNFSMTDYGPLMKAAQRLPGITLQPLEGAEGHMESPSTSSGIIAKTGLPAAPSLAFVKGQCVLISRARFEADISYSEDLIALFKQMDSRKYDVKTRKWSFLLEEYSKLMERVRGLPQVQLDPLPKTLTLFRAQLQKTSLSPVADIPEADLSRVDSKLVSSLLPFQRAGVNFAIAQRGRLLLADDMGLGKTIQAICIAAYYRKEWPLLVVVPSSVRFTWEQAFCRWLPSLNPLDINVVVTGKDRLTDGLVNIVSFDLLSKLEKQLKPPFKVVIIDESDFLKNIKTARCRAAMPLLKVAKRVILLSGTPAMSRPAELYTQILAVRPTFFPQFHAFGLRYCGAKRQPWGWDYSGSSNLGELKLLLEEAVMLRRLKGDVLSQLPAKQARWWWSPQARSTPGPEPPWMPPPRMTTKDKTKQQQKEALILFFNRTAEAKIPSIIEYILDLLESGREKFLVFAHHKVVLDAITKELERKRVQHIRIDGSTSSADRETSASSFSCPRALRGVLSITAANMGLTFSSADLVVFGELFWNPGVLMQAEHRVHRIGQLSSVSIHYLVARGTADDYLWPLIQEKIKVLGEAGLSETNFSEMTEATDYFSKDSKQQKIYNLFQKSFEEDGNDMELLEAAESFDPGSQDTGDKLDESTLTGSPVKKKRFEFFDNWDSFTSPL

The target in data set [2] is T2, ADAAD R595K (Bos taurus (bovine), UniProt Q9TTA5 221-940, R815K).
T2 sequence: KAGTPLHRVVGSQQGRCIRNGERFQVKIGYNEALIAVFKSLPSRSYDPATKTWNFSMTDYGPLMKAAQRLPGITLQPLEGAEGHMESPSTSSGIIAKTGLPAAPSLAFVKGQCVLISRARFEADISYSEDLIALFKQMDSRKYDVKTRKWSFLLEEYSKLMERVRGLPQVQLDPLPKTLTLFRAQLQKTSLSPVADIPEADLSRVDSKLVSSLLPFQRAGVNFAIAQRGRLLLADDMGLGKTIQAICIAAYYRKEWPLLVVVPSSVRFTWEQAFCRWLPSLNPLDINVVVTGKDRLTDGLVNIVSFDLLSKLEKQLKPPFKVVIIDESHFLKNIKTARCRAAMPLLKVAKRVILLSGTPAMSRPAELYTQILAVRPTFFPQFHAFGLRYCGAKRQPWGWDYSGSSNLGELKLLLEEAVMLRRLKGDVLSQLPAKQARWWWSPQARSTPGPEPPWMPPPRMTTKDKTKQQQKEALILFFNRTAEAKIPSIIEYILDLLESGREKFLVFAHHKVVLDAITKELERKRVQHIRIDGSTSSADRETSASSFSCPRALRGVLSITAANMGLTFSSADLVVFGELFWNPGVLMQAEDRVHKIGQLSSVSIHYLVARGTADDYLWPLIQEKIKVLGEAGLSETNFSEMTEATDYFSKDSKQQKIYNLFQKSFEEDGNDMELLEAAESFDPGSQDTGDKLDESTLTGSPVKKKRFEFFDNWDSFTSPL

Data set [3] has as its target T3, ADAAD F507A/R592A (Bos taurus (bovine), UniProt Q9TTA5 221-940, F727A;R812A).
T3 sequence: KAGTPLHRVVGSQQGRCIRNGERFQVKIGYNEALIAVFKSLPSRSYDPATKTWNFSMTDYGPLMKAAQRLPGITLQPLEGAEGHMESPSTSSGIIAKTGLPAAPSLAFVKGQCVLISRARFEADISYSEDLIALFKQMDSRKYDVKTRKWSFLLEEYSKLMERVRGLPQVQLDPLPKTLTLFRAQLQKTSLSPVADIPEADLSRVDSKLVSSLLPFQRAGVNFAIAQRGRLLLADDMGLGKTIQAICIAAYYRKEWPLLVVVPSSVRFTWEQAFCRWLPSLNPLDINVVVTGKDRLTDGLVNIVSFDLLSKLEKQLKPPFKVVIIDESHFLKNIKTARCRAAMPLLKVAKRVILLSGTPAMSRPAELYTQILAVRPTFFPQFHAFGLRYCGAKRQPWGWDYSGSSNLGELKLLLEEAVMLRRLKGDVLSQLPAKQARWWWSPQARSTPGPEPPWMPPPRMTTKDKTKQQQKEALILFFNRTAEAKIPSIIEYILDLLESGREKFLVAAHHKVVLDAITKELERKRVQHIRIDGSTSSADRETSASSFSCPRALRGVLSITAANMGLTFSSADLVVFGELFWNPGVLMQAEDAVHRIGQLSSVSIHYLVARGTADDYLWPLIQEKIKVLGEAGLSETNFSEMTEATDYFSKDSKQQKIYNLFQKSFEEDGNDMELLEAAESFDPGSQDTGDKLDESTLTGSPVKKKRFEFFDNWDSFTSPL

For GCGCAATTGCGCTCGACGATTTTTTAGCGCAATTGCGC (structured_DNA) [slDNA (stem-loop DNA)], the dissociation constant (Kd) came to 16.1 ± 5.7 nM in data set [1], 25.1 ± 7.4 nM in data set [2] and 27.8 ± 3.6 nM in data set [3].
